# Experimental data from article PMC6327041, “Histone H3 binding to the PHD1 domain of histone demethylase KDM5A enables active site remodeling” (Nature Communications, 2019).
# Biological target: KDM5A PHD1 domain, S287-K347 (UniProt P29375)
# Assay: competition fluorescence polarization
# Details: reference: unmodified H3 10mer peptide
# Chain of KDM5A PHD1 domain, S287-K347 (P29375 whole entry, looked up, the tested form may be a part): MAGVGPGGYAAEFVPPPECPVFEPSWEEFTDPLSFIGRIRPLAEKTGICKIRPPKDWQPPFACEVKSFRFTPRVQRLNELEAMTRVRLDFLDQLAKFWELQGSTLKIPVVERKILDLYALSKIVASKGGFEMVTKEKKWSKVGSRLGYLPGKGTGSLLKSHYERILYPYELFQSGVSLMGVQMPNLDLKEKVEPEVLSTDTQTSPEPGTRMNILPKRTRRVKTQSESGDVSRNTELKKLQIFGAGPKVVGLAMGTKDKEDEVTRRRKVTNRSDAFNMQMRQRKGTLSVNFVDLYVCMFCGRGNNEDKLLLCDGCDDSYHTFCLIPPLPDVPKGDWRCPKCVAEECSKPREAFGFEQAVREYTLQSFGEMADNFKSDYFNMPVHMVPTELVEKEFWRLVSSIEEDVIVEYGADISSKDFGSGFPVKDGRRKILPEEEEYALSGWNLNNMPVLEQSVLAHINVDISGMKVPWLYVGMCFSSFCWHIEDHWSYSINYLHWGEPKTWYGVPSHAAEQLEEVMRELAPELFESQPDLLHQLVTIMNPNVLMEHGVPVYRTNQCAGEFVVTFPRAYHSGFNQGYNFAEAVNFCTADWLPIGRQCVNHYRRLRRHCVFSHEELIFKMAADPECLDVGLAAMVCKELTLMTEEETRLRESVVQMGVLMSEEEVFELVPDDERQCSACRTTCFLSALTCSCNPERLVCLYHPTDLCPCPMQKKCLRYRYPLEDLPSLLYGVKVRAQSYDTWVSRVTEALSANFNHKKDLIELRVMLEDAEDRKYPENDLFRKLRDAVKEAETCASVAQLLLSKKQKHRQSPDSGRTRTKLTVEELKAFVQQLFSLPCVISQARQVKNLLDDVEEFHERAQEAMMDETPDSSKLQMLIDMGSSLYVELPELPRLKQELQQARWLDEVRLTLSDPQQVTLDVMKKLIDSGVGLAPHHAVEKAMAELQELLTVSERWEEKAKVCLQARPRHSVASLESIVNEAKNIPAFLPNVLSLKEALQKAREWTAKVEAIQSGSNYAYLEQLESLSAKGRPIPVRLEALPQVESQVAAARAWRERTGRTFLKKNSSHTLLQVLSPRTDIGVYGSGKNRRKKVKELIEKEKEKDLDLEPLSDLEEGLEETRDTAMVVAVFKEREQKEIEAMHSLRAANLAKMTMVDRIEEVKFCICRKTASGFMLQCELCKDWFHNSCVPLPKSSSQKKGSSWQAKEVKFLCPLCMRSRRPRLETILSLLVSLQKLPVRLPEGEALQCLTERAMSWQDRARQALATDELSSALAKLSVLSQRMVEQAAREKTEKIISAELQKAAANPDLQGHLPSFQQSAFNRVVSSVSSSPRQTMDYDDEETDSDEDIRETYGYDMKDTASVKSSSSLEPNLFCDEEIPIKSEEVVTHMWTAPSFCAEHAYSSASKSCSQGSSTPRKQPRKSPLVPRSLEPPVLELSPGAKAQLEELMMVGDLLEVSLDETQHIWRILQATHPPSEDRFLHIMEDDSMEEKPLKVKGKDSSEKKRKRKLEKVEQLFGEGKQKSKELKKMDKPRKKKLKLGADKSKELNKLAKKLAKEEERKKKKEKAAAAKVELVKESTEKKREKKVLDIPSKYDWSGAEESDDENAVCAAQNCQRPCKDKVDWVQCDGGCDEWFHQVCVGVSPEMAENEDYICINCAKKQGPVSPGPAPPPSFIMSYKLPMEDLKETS
Substance,binding against the reference (sites T3),binding against the reference (sites T6)
"histone H3 (N-terminal tail peptide) N-terminal tail 10mer, 1-10 (from UniProt P68431) H3T3ph 10mer peptide",weaker,
"histone H3 (N-terminal tail peptide) N-terminal tail 10mer, 1-10 (from UniProt P68431) H3T6ph 10mer peptide",,weaker
